Substrate in data set [1]: CC(C)(COP(=O)(O)OP(=O)(O)OC[C@H]1O[C@@H](n2cnc3c(N)ncnc32)[C@H](O)[C@@H]1OP(=O)(O)O)[C@@H](O)C(=O)NCCC(=O)NCCS
Kind of data set: coupled enzyme assay, NAD(H) oxidation. It is filed as biochemical, Syntrophus aciditrophicus. To be noted: acetyl-CoA-forming direction (CoA limiting), 37°C. The text has this: coupled enzyme assay, NAD(H) oxidation on Purified Acs1 (native AMP-forming, acetyl-CoA synthetase)

Substrate in data set [2]: CC(=O)O
Kind of data set: purified protein. Conditions: acetyl-CoA-forming direction (acetate limiting), 37°C.

Substrate in data set [3]: O=P(O)(O)OP(=O)(O)O
Kind of data set: ATP formation coupled to hexokinase / glucose-6-phosphate dehydrogenase, NADP+ reduction. It is filed as biochemical, Syntrophus aciditrophicus. Conditions: acetate-forming direction (pyrophosphate limiting), AMP and acetyl-CoA co-substrates, 37°C, enzyme purified without ammonium sulfate fractionation. The text has this:
ATP formation coupled to hexokinase / glucose-6-phosphate dehydrogenase, NADP+ reduction on Purified Acs1 (native AMP-forming, acetyl-CoA synthetase)

Substrate in data set [4]: CC(C)(COP(=O)(O)OP(=O)(O)OC[C@H]1O[C@@H](n2cnc3c(N)ncnc32)[C@H](O)[C@@H]1OP(=O)(O)O)[C@@H](O)C(=O)NCCC(=O)NCCS
The data set can be described thus: coupled enzyme assay, NAD(H) oxidation. Format: biochemical, Syntrophus aciditrophicus. To be noted: acetyl-CoA-forming direction (CoA limiting), 37°C. The text has this:
coupled enzyme assay, NAD(H) oxidation on Recombinant Acs1 (SYN_02635 gene product)
The source holds these as a separate data set.

B1: Purified Acs1 (native AMP-forming, acetyl-CoA synthetase) (Syntrophus aciditrophicus SB) (protein)
chain: MGEESILKEFYPVPERIKAKAWVKGRGEYDKLYAESIADSAAWWAKQADEILTFYKKWDKVEDFNFDIRKGPIHVKYFEGAKLNVSYNCLDRHLATKGDKVAIQWEGNEPGEQKAYTYKDLHTEVCKFANVLKKHGIKRGDRVCIYTPMVVEAAIAMLACTRIGAVHAIVFGGFSSDALAVRIQDAQAKLLVVCDGTFRGAKAVPQKKDADVALKECPTIEKVIVVRRVGDKIACDMTPGRDLWWHDEMATVDANCECEQMDAEDTLFILYTSGSTGQPKGALHTTAGYLLYAAYTSKFAFDLHDEDIHWCTADIGWVTGHSYVVYGPLALGATSIMFEGVPNYPTYSRFWQVVEKYKVTSFYTAPTAIRAIAKEGDEWLKGIDLSSLRVLSSVGEPLNPEAWQWFYEKIGNSQCPIVDTWWQTETGGHMILPLPGAIDIKPAKPALPIMGVIPTLVDDQTGEELKNMEANGALCFKTAWPGITRTIYGDHKRYEETYFEPYPGNYFSGDGALRDKDGYYRITGRIDDVINVSGHRMGTAEIEATLNAHEKVAESAVVGYPHEVKGQSIYAYITLKTGFEPSEDLKKELTQYVRTIIGPIATPEKIQWADGLPKTRSGKIMRRILKKVAANELGDLGDTSTLADPAVVDDLVKNRL
notes: native, purified from crotonate-grown pure-culture cell extracts; single band ~74 kDa on denaturing gel; untagged
Regarding B1, the Km in data set [1] is on record as 0.26 ± 0.1 mM; in data set [2], 0.59 ± 0.2 mM; in data set [3] it was 0.25 ± 0.02 mM.

B2: Recombinant Acs1 (SYN_02635 gene product) (Syntrophus aciditrophicus SB) (protein)
chain: MGEESILKEFYPVPERIKAKAWVKGRGEYDKLYAESIADSAAWWAKQADEILTFYKKWDKVEDFNFDIRKGPIHVKYFEGAKLNVSYNCLDRHLATKGDKVAIQWEGNEPGEQKAYTYKDLHTEVCKFANVLKKHGIKRGDRVCIYTPMVVEAAIAMLACTRIGAVHAIVFGGFSSDALAVRIQDAQAKLLVVCDGTFRGAKAVPQKKDADVALKECPTIEKVIVVRRVGDKIACDMTPGRDLWWHDEMATVDANCECEQMDAEDTLFILYTSGSTGQPKGALHTTAGYLLYAAYTSKFAFDLHDEDIHWCTADIGWVTGHSYVVYGPLALGATSIMFEGVPNYPTYSRFWQVVEKYKVTSFYTAPTAIRAIAKEGDEWLKGIDLSSLRVLSSVGEPLNPEAWQWFYEKIGNSQCPIVDTWWQTETGGHMILPLPGAIDIKPAKPALPIMGVIPTLVDDQTGEELKNMEANGALCFKTAWPGITRTIYGDHKRYEETYFEPYPGNYFSGDGALRDKDGYYRITGRIDDVINVSGHRMGTAEIEATLNAHEKVAESAVVGYPHEVKGQSIYAYITLKTGFEPSEDLKKELTQYVRTIIGPIATPEKIQWADGLPKTRSGKIMRRILKKVAANELGDLGDTSTLADPAVVDDLVKNRL
For the protein B2, the Km in data set [2] came to 0.96 ± 0.02 mM; in data set [4] it was 0.21 ± 0.05 mM.

The values above are taken from PMC4992975, “Pyrophosphate-Dependent ATP Formation from Acetyl Coenzyme A in Syntrophus aciditrophicus, a New Twist on ATP Formation” (mBio, 2016).
